Patent US20220026415A1, “A METHOD FOR SCREENING A THERAPEUTIC AGENT FOR CANCER USING BINDING INHIBITOR OF CYCLIN-DEPENDENT KINASE 1 (CDK1)-CYCLIN B1 AND RETINOIC ACID RECEPTOR RESPONDER 1 (RARRES1) GENE KNOCKOUT ANIMAL MODEL” (NATIONAL CANCER CENTER, priority 2018, published 2022)

System: HEK293 cells
Test: Cell cycle distribution after release from double thymidine block, flow cytometry
Type: cell-based
Method: In the case of a double thymidine block (DTB) synchronized at the G1/S boundary, HEK293 cells were incubated with 2 mM thymidine for 16 hours and maintained in a normal medium for 10 hours, and then 2 mM thymidine was further added thereto for 16 hours.
For analysis of cell cycles or sub-G1 DNA contents, cells were immobilized with 80% ice-cold ethanol, and stored at 4° C. The cells were stained with PBS containing 50 ug/ml of propidium iodide (PI) and 100 ug/ml of RNase A at 37° C. for 30 minutes. DNA content was analyzed by FACS Calibur flow cytometry and the results thereof were analyzed using Cellquest software (Becton-Dickinson Immunocytometry Systems, San Diego, Calif.) and Modfit LT 3.3 software. At least 10,000 cells were analyzed per sample.
To evaluate whether the reduced cell growth observed in RARRES1-overexpressing cells was due to altered cell cycle progression, HEK293 cells were transfected with green fluorescent protein (GFP) tagged-RARRES1 or -empty vector (Ctrl) according to the method of Example 1-1, and the cells were observed by live cell imaging according to Example 1-6. From now on, all data shown was regarded as isoform 1 since there was no difference between the two isoforms of RARRES1 in the above experiments, and it was named ‘RARRES1.’ In HEK293 cells transfected with a GFP control (Ctrl) according to the method of Example 1-1, the cells underwent normal cell cycle progression. A cell entered into mitosis (round shape) within 1 hour, and was separated into two daughter cells within at least 2.5 hours (see FIG. 5A, top panel). […] To confirm mitotic arrest induced by RARRES1 overexpression, GFP-control or GFP-RARRES1-overexpressing 293 cells and 293 cells transfected with a red fluorescent protein (RFP) lentivirus used to label GFP non-transfected cell, according to Example 1-3 were co-cultured, and changes in the number of fluorescence-expressing cells (see FIG. 5B) were monitored. […] Under co-culture conditions of GFP-control coupled with RFP virus-transfected cells, the numbers of both fluorescence-expressing cells were increased over time. […]

B1: RARRES1: RARRES1 isoform 1 overexpressed in HEK293 cells by transfection with an expression vector (protein)
chain: MQPRRQRLPAPWSGPRGPRPTAPLLALLLLLAPVAAPAGSGDPDDPGQPQDAGVPRRLLQQAARAALHFFNFRSGSPSALRVLAEVQEGRAWINPKEGCKVHVVFSTERYNPESLLQEGEGRLGKCSARVFFKNQKPRPTINVTCTRLIEKKKRQQEDYLLYKQMKQLKNPLEIVSIPDNHGHIDPSLRLIWDLAFLGSSYVMWEMTTQVSHYYLAQLTSVRQWKTNDDTIDFDYTVLLHELSTQEIIPCRIHLVWYPGKPLKVKYHCQELQTPEEASGTEEGSAVVPTELSNF
cells in the G2/M phases (4 hours after release from DTB, control 21.38%): 29.85% | cells in the G2/M phases (6 hours after release from DTB, control 77.41%): 80.91% | cells in the G2/M phases (8 hours after release from DTB, control 45.47%): 54.46%
